The text below walks through data of patent US20220162334A1 (SHANGHAI HENLIUS BIOTECH, published 2022).

For experiment [1], the target named is T1, human CD73 on CD73-expressing human tumor cells (MDA-MB-231, NCI-H292) (human, UniProt P21589 27-549).
T1 construct: whole, on cells; The cell line of each result is named under assay or readout; also called cell surface CD73; surface CD73
T1 sequence (looked up): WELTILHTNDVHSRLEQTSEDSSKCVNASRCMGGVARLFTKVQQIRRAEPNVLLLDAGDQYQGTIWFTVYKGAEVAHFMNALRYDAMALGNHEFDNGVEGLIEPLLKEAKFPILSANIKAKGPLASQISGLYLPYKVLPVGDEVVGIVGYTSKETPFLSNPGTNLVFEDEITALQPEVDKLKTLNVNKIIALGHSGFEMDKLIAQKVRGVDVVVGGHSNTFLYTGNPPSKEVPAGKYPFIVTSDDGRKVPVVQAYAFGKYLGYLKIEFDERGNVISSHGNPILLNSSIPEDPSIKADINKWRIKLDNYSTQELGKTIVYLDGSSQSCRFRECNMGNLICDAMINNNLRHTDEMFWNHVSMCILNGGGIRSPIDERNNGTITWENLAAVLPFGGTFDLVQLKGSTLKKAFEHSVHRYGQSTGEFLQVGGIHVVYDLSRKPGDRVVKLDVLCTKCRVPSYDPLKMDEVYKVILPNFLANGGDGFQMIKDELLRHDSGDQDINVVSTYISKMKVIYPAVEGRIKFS
As to the kind of experiment: flow cytometry on MDA-MB-231 cells (FIG. 16B). On the procedure: Whole cell binding ability of anti-CD73 antibodies were tested by incubating the MDA-MB-231 or NCI-H292 cells with the serial-diluted antibodies in FACS buffer (PBS with 2% FBS) at 4° C. for 30 minutes. Cells were washed with FACS buffer and the binding was detected with FITC-labeled goat anti-human IgG (H+L) antibodies (or PE-labeled goat anti-human IgG Fcγ) at 4° C. for another 30 minutes. The binding of antibodies to cell surface was measured by the mean fluorescent intensity (MFI) of staining. Flow cytometric analyses were performed using the Cytomics FC500 or CytoFLEX flow cytometry (Beckman Coulter Inc.). FIGS. 2B and 2C show selected anti-CD73 antibodies binding to CD73-expressing human tumor cells MDA-MB-231 (human breast adenocarcinoma) cells (FIG. 2B), and NCI-H292 (human mucoepidermoid pulmonary carcinoma) cells (FIG. 2C).
FIGS. 16A-16C show CD73 binding ability of N1 and N4 top variants. Anti-CD73 antibodies were tested the binding to recombinant human CD73 proteins by ELISA (FIG. 16A) and CD73-expressing human tumor cells, MDA-MB-231 (FIG. 16B) and NCI-H292 (FIG. 16C), by flow cytometry. Anti-CD73 ref-1 and anti-CD73 ref-2 antibodies were used as the positive controls, while HLX01 (anti-CD20) was used as the negative control. […] The binding of N1#9-PH to CD73-expressing NCI-H292 cells is slightly better than that of N4#6-3-P and N4#6-4-P.
Background: In flow cytometry, cells or beads pass a laser one at a time.

The target in experiment [2] is T2, mouse CD73 on mouse mammary carcinoma 4T1 cells (mouse, UniProt Q61503 29-551).
T2 construct: whole, on cells
T2 sequence (looked up): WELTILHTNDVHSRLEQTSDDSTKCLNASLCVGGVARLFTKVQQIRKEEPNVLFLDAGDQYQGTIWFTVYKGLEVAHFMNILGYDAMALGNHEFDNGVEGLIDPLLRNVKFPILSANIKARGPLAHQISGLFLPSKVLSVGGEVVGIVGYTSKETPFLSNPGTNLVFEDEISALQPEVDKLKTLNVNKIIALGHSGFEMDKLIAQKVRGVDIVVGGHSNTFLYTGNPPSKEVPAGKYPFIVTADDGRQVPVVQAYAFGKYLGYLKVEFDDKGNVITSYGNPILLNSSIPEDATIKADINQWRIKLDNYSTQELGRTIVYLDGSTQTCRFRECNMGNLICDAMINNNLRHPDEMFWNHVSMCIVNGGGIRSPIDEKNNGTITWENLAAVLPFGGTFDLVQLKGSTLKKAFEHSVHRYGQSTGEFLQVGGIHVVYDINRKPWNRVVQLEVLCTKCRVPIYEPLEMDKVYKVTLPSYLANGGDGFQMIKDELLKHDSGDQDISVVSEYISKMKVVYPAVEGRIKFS
The experiment in a line: flow cytometry on 4T1 cells, FITC anti-human IgG (FIG. 24A). The procedure:
Binding of anti-CD73 antibodies was assessed by incubating the 4T1 or LLC-MK2 cells (1E5 cells/test) with the serially diluted antibodies in FACS buffer (PBS with 2% FBS) at 4° C. for 30 minutes. The cells were washed with FACS buffer and the binding was detected with FITC-labeled goat anti-human IgG (H+L) antibodies at 4° C. for another 30 minutes. The binding of antibodies to cell surface was measured by the mean fluorescent intensity (MFI) of staining. Flow cytometric analyses were performed using the Cytomics FC500 or CytoFLEX flow cytometry (Beckman Coulter Inc.).
FIGS. 24A and 24B illustrate cross-binding of N1 and N4 top variants to mouse and monkey CD73-expressing cells. Anti-CD73 antibodies were tested for the binding to CD73-expressing mouse mammary carcinoma 4T1 cells (FIG. 24A) and monkey kidney epithelial LLC-MK2 cells (FIG. 24B) by flow cytometry. HLX01 was used as the negative control. […] N1 and N4 top variants cannot cross-bind to mouse CD73.

B1: N1#9-PH (antibody, human IgG2, lambda, V domains shown)
VH: EVQLVESGGGLVQPGRSLRLSCAASGFTFDDYAMHWVRLAPGKGLEWVSGISWNSGSIGYADSVRGRFTISRDNAKNSLYLQMNSLRAEDTALYYCAKDMGWSLLKTNYYGMDVWGQGTTVTVSS
VL: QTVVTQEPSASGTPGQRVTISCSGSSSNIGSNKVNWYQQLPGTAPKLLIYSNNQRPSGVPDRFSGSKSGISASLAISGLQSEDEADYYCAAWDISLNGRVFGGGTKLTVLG
notes: Full-length human IgG2 antibody; also called antibody variant N1#9-PH; N1 top variant
As to B1, the values for the binding result in experiment [1] and in experiment [2] were “binds” and “no binding”, respectively.

B2: N4#6-3-P (antibody, human IgG2, lambda, V domains shown)
VH: QVQLVQSGAEVKKSGSSVKVSCKASGGTFSSYAISWVRQAPGQGLEWMGGIIPIFGTANYAQKFQGRVTITADESTSIAYMELSSLRSEDTAVYYCASDGAVAAYDAFLIWGQGTMVTVSS
VL: QAVLTQPSSVSGAPGQRVTISCTGTSSNIGLGYDIHWYQQLPGTAPKLLMYRFDRRPSGVPDRFSGSKSGTSASLTITGLQVEDEADYYCQSYDSGQRGWVFGGGTKLTVLG
notes: Full-length human IgG2 antibody; also called antibody variant N4#6-3-P; N4 top variant
For B2, the results for the binding result in experiment [1] and in experiment [2] were “binds” and “no binding”, respectively.

B3: N4#6-4-P (antibody, human IgG2, lambda, V domains shown)
VH: QVQLVQSGAEVKKSGSSVKVSCKASGGTFSSYAISWVRQAPGQGLEWMGMIIPIFGTANYAQKFQGRVTITADESTSIAYMELSSLRSEDTAVYYCASDGAVAAYDAFLIWGQGTMVTVSS
VL: QAVLTQPSSVSGAPGQRVTISCTGTSSNIGAGFDIHWYQQLPGTAPKLLMYRFSRRPSGVPDRFSGSKSGTSASLTITGLQVEDEADYYCQSYDSGQRGWVFGGGTKLTVLG
notes: Full-length human IgG2 antibody; also called antibody variant N4#6-4-P; N4 top variant
Consider B3, for which the binding result in experiment [1] is reported as “binds”; in experiment [2], “no binding”.
